One data set has as its system C57BL/6 mice. As to the kind of experiment: In vivo anti-drug antibody (ADA) titers in mice. Set-up: species or system mouse. The conditions noted are these: 4 mg/kg subcutaneous, day 20. Here is the method:
Adalimumab and Adalimumab-Siglec Ligand conjugates were prepared as described in Example 4. The Adalimumab-Siglec ligand was conjugated by maleimide coupling to engineered cysteine residue L443C in the heavy chain constant region.
To evaluate the production of antibodies specific to adalimumab and/or adalimumab-Siglec Ligand conjugates, C57BL/6 mice were immunized through subcutaneous injection with adalimumab or CD22 ligand-conjugated adalimumab. On study day −1, animals were randomized into treatment groups based on body weight. On study day 0, animals were bled for baseline serum and then injected subcutaneously with adalimumab or the adalimumab-Siglec Ligand conjugate. The individual antigens were prepared by making antigen solution in sterile PBS pH 7.4. […]
ADA assays were performed on 96-well assay plates (Nunc Plates, Black 96-Well Immuno Plates, Thermo Scientific, Cat. No. 437111) coated with antigen, as follows. […] The excitation and emission settings for the QuantaBlu Fluorogenic Peroxide Substrates are 325 nm and 420 nm and the relative florescence units were measured using a SpectraMax plate reader. […] The titer cut point was determined by calculating the mean of the naïve, untreated mice and adding twice the standard deviation of the untreated samples.

Data set [1] can be described thus: Pharmacokinetic monitoring in mice after single subcutaneous administration. It counts as in vivo, mouse. The conditions noted are these: C57BL/6 mice, single subcutaneous dose 4 mg/kg. The protocol: Pharmacokinetic monitoring was also carried out in the same C57BL/6 mice following a single subcutaneous administration of adalimumab or the SigL-conjugated adalimumab antibodies. Animals were bled via the retro-orbital sinus throughout the study under inhaled isoflurane anesthesia at 1 h, 6 h, 1-day, 2-days, 6-days, 13-days, 20 days and 27-days post test-article administration. Whole blood was collected into Microvette K2EDTA capillary collection tube (Sarstedt Inc) and then further processed following manufactures instructions to collect plasma. Levels of adalimumab and SigL-conjugated adalimumab in plasma samples were measured using an AlphaLISA human IgG assay (Perkin Elmer) following manufacturer's protocols.

As for Adalimumab, the ADA titers result in the data set with C57BL/6 mice is “high ADA titers”. Also, in data set [1], the clearance entry is given as “significantly increased clearance” and the “time of falling below the limit of quantitation (BLOQ)” value came to 13 days.

The values above are taken from patent US20250127904A1, “SIGLEC LIGANDS, CONJUGATES, AND METHODS OF USE THEREOF” (Osprey Biopharmaceuticals, Inc., priority 2023, published 2025).
